Measurements as given in US7018836B1, “P-TEFb compositions, methods and screening assays” (priority 1996, dated 2006).

B1: Tat: 86 residue HIV-1 Tat followed by a streptavidin binding tag at its carboxyl terminus (protein)
chain: MEPVDPRLEPWKHPGSQPKTACTNCYCKKCCFHCQVCFITKALGISYGRKKRRQRRRAHQNSQTHQASLSKQPTSQPRGDPTGPKE
modifications: left off: large carriers
B2: DBS: Drosophila P-TEFb small subunit, HIS-tagged recombinant (protein)
chain: MAHMSHMLQQPSGSTPSNVGSSSSRTMSLMEKQKYIEDYDFPYCDESNKYEKVAKIGQGTFGEVFKAREKKGNKKFVAMKKVLMDNEKEGFPITALREIRILQLLKHENVVNLIEICRTKATATNGYRSTFYLVFDFCEHDLAGLLSNMNVKFSLGEIKKVMQQLLNGLYYIHSNKILHRDMKAANVLITKHGILKLADFGLARAFSIPKNESKNRYTNRVVTLWYRPPELLLGDRNYGPPVDMWGAGCIMAEMWTRSPIMQGNTEQQQLTFISQLCGSFTPDVWPGVEELELYKSIELPKNQKRRVKERLRPYVKDQTGCDLLDKLLTLDPKKRIDADTALNHDFFWTDPMPSDLSKMLSQHLQSMFEYLAQPRRSNQMRNYHQQLTTMNQKPQDNSMIDRVW
modifications: left off: small tags and cut ends
notes: Drosophila P-TEFb small subunit, HIS-tagged recombinant

Legend:
[1] = system: transcription from HIV-1 LTR; experiment: In vitro Tat transactivation in HNE with TAR and DTAR templates (FIG. 8); type: biochemical, human
Experimental: The transcription template (Nco I-digested pLTR-4/CAT vector containing the HIV-1 LTR from −153 to +80) was used in a pulse-chase transcription experiment. Reactions (12 μl total; 20 mM HEPES, pH 7.6, 7 mM MgCl2, 20 μg/ml DNA template, 3 μl HNE, 64 mM KCl, with 50 μM DRB or 0.3 μl Drosophila P-TEFb (Marshall et al., 1996) as indicated) were pre-incubated for 20 minutes at 30° C., pulsed for 2 minutes by adding ATP, GTP, UTP to 600 μM each and 5 μCi [α-^32P]CTP (˜0.1 mM), and chased for 5 minutes by adding CTP to 1.2 mM. Reactions were stopped, phenol extracted and analyzed on a 6% polyacrylamide gel as described (Marshall and Price, 1995). pLTR-TAR-Luc and pLTR-DTAR-Luc plasmids were digested with Eco RI to generate TAR and DTAR template that were used in the studies. The TAR template contains HIV-1 LTR from −475 to +76, while the DTAR template contains HIV-1 LTR from −475 to +19. Transcription with TAR and DTAR templates generates runoffs of 694 and 646 nucleotides, respectively. The transcription reaction mix contained 20 mM HEPES (pH7.6), 7 mM MgCl2, 60 mM KCl, 0.5 μl HNE (or depHNE as indicated), 20 μg/ml TAR template (or DTAR template as indicated), indicated amount of HIV-1 Tat (86 residue HIV-1 Tat followed by a streptavidin binding tag at its carboxyl terminus) and DRB. The reaction mix was pre-incubated for 15 minutes at 30° C. and the transcription was started by adding nucleotides to final concentrations of 50 μM ATP, 50 μM GTP, 50 μM UTP, 10 μM CTP, and 5 μCi [α-^32P]CTP (˜0.1 mM), and continuously labeled for 20 minutes, or by adding nucleotides to final concentrations of 50 μM ATP, 50 μM GTP, 50 μM UTP, and 5 μCi [α-^32P]CTP (˜0.1 mM), and pulsed for 2 minutes. The reactions were stopped and reaction mix were phenol-extracted. The transcripts were then analyzed on a 6% polyacrylamide gel as described (Marshall and Price, 1995).

[2] = system: transcription in Drosophila extract depleted of P-TEFb; experiment: Transcription activity of recombinant protein added into Drosophila extract depleted of P-TEFb (Table 1); type: biochemical
RNA polymerase II = experiment: Kinase assay of recombinant P-TEFb subunits with RNA polymerase II as substrate (Table 1); type: biochemical, Drosophila; settings: RNA polymerase II as substrate
Experimental: 0.4 μl of purified RNA polymerase II and various protein samples were mixed in 18 μl of 55 mM HMK. The reaction was then initiated by the addition of 2 μl of a solution containing 2 μCi of [γ-^32P]ATP (ICN) and unlabeled ATP at 10 μM, or only unlabeled ATP at concentrations from 1 to 100 μM or other NTPs or dNTPs at concentrations of 1 to 100 μM. Reactions were incubated for the indicated times at 23° C. and then terminated with SDS loading buffer. Samples were analyzed on a 6–15% SDS polyacrylamide gel which was silver stained, dried and subjected to autoradiography if the assay contained label.
Using the CTD Kinase assay, as previously described in Example 2, Section A.7, both HBL1-1 (SEQ ID NO:45), HBL2(SEQ ID NO:47) and HBL3 (SEQ ID NO:50) were substituted for the large subunit in the Drosophila transcription system. Alone “PITARLE” has little kinase activity and no detectable activity in transcription.

Molecule | stimulation of generation of runoff ([1]; HNE not depleted, TAR template, continuous labeling, 10 ng/μl Tat) | increase of runoff in presence of 50 μM DRB, DTAR template or absence of human P-TEFb ([1]; continuous labeling) | increase of transcription initiation (short pulsed transcripts) ([1]; pulse-only protocol, 10 ng/μl Tat) | Transcription activity [2] | Kinase activity (RNA polymerase II)
B1 | about 12 fold | about two | about two |  | 
B2 |  |  |  | none | very little
